Results from the Immune Epitope Database (IEDB).

Columns and labels:
[1] = molecular target: HLA-A*02:03; assay: IEDB peptide-MHC binding, purified MHC/competitive/fluorescence; filed as Kd, often an IC50 or EC50 that approximates it; ≥ and ≤ were set here for values at or beyond the usual limits of such assays; details: source organism: Human immunodeficiency virus 1
[2] = molecular target: HLA-A*02:01; assay: as above; details: source organism: Human immunodeficiency virus 1
[3] = molecular target: HLA-A*02:06; assay: as above; details: source organism: Human immunodeficiency virus 1
[4] = molecular target: HLA-B*08:02; assay: as above; details: source organism: Human immunodeficiency virus 1
[5] = molecular target: HLA-A*26:01; assay: as above; details: source organism: Human immunodeficiency virus 1
[6] = molecular target: HLA-B*18:01; assay: as above; details: source organism: Human immunodeficiency virus 1
[7] = molecular target: HLA-B*39:01; assay: as above; details: source organism: Human immunodeficiency virus 1
[8] = molecular target: HLA-A*68:02; assay: as above; details: source organism: Human immunodeficiency virus 1
[9] = molecular target: HLA-A*02:16; assay: IEDB peptide-MHC binding, purified MHC/direct/fluorescence; filed as Kd, often an IC50 or EC50 that approximates it; ≥ and ≤ were set here for values at or beyond the usual limits of such assays
[10] = molecular target: HLA-A*02:01; assay: as above
[11] = molecular target: HLA-A*02:11; assay: as above; details: source organism: Vibrio vulnificus CMCP6
[12] = molecular target: HLA-A*69:01; assay: as above
[13] = molecular target: HLA-A*02:50; assay: IEDB peptide-MHC binding, purified MHC/competitive/fluorescence; filed as Kd, often an IC50 or EC50 that approximates it; ≥ and ≤ were set here for values at or beyond the usual limits of such assays
[14] = molecular target: HLA-A*02:03; assay: IEDB peptide-MHC binding, purified MHC/direct/fluorescence; filed as Kd, often an IC50 or EC50 that approximates it; ≥ and ≤ were set here for values at or beyond the usual limits of such assays; details: source organism: Listeria monocytogenes serotype 4b str. H7858
[15] = molecular target: HLA-A*02:06; assay: as above; details: source organism: Listeria monocytogenes serotype 4b str. H7858
[16] = molecular target: HLA-A*26:01; assay: as above; details: source organism: Listeria monocytogenes serotype 4b str. H7858
[17] = molecular target: HLA-B*57:01; assay: as above; details: source organism: Listeria monocytogenes serotype 4b str. H7858
[18] = molecular target: HLA-B*18:01; assay: as above; details: source organism: Listeria monocytogenes serotype 4b str. H7858
[19] = molecular target: HLA-B*39:01; assay: as above; details: source organism: Listeria monocytogenes serotype 4b str. H7858
[20] = molecular target: HLA-A*29:02; assay: as above; details: source organism: Listeria monocytogenes serotype 4b str. H7858
[21] = molecular target: HLA-A*02:12; assay: as above; details: source organism: Listeria monocytogenes serotype 4b str. H7858
[22] = molecular target: HLA-A*03:01; assay: as above
[23] = molecular target: HLA-B*27:03; assay: as above; details: source organism: Listeria monocytogenes serotype 4b str. H7858
[24] = molecular target: HLA-A*02:19; assay: as above; details: source organism: Listeria monocytogenes serotype 4b str. H7858
[25] = molecular target: HLA-B*51:01; assay: as above; details: source organism: Listeria monocytogenes serotype 4b str. H7858
[26] = molecular target: HLA-A*23:01; assay: as above; details: source organism: Listeria monocytogenes serotype 4b str. H7858
[27] = molecular target: HLA-A*01:01; assay: IEDB peptide-MHC binding, purified MHC/competitive/fluorescence; filed as Kd, often an IC50 or EC50 that approximates it; ≥ and ≤ were set here for values at or beyond the usual limits of such assays; details: source organism: Listeria monocytogenes J0161
[28] = molecular target: HLA-A*66:01; assay: as above; details: source organism: Listeria monocytogenes J0161
[29] = molecular target: HLA-B*58:01; assay: as above; details: source organism: Listeria monocytogenes J0161
[30] = molecular target: HLA-B*53:01; assay: as above; details: source organism: Listeria monocytogenes J0161
[31] = molecular target: HLA-A*11:01; assay: as above; details: source organism: Listeria monocytogenes J0161
[32] = molecular target: HLA-B*40:01; assay: as above; details: source organism: Listeria monocytogenes J0161
[33] = molecular target: HLA-B*08:01; assay: as above; details: source organism: Listeria monocytogenes J0161
[34] = molecular target: HLA-B*07:02; assay: as above; details: source organism: Listeria monocytogenes J0161
[35] = molecular target: HLA-B*27:05; assay: as above; details: source organism: Listeria monocytogenes J0161
[36] = molecular target: HLA-A*24:03; assay: as above; details: source organism: Listeria monocytogenes J0161
[37] = molecular target: HLA-A*30:01; assay: as above; details: source organism: Listeria monocytogenes J0161
[38] = molecular target: HLA-B*14:02; assay: as above; details: source organism: Listeria monocytogenes J0161
[39] = molecular target: HLA-B*44:02; assay: as above; details: source organism: Listeria monocytogenes J0161
[40] = molecular target: HLA-A*01:01; assay: IEDB peptide-MHC binding, purified MHC/direct/fluorescence; filed as Kd, often an IC50 or EC50 that approximates it; ≥ and ≤ were set here for values at or beyond the usual limits of such assays; details: source organism: Salmonella enterica
[41] = molecular target: HLA-B*58:01; assay: as above; details: source organism: Salmonella enterica
[42] = molecular target: HLA-A*11:01; assay: as above; details: source organism: Salmonella enterica
[43] = molecular target: HLA-B*40:01; assay: as above; details: source organism: Salmonella enterica
[44] = molecular target: HLA-B*08:01; assay: as above; details: source organism: Salmonella enterica subsp. enterica serovar Typhimurium str. LT2
[45] = molecular target: HLA-B*07:02; assay: as above; details: source organism: Salmonella enterica
[46] = molecular target: HLA-B*27:05; assay: as above; details: source organism: Salmonella enterica
[47] = molecular target: HLA-B*15:01; assay: as above; details: source organism: Salmonella enterica
[48] = molecular target: HLA-B*44:02; assay: as above; details: source organism: Salmonella enterica
[49] = molecular target: HLA-C*14:02; assay: as above; details: source organism: Salmonella enterica subsp. enterica serovar Typhi str. CT18
[50] = source organism: Vibrio vulnificus
[51] = source organism: Listeria monocytogenes serotype 4b str. H7858
[52] = source organism: Salmonella enterica

## IEVKDTKEAL
[1]
  Kd: ≥ 20000 nM
[2]
  Kd: 681 nM
[3]
  Kd: 574 nM
[4]
  Kd: ≥ 20000 nM
[5]
  Kd: ≥ 20000 nM
[6]
  Kd: 314 nM
[7]
  Kd: ≥ 20000 nM
[8]
  Kd: 766 nM

## QLAFTYCQV
[9]; source organism: Vibrio vulnificus CMCP6
  Kd: 21 nM
[10]; [50]
  Kd: 567 nM
[11]
  Kd: 2 nM
[12]; [50]
  Kd: 153 nM
[13]; source organism: Vibrio vulnificus YJ016
  Kd: ≤ 0.1 nM

## AALEGLSGF
[14]
  Kd: ≥ 20000 nM
[10]; [51]
  Kd: 1900 nM
[15]
  Kd: 1920 nM
[16]
  Kd: ≥ 20000 nM
[17]
  Kd: ≥ 20000 nM
[18]
  Kd: ≥ 20000 nM
[19]
  Kd: ≥ 20000 nM
[20]
  Kd: 542 nM
[21]
  Kd: ≥ 20000 nM
[22]; [51]
  Kd: ≥ 20000 nM
[23]
  Kd: ≥ 20000 nM
[12]; [51]
  Kd: ≥ 20000 nM
[24]
  Kd: ≥ 20000 nM
[25]
  Kd: ≥ 20000 nM
[26]
  Kd: 622 nM
[27]
  Kd: ≥ 5000 nM
[28]
  Kd: ≥ 5000 nM
[29]
  Kd: ≥ 5000 nM
[30]
  Kd: ≥ 5000 nM
[31]
  Kd: ≥ 5000 nM
[32]
  Kd: ≥ 5000 nM
[33]
  Kd: ≥ 5000 nM
[34]
  Kd: ≥ 5000 nM
[35]
  Kd: ≥ 5000 nM
[36]
  Kd: 771 nM
[37]
  Kd: ≥ 5000 nM
[38]
  Kd: ≥ 5000 nM
[39]
  Kd: ≥ 5000 nM

## AMMWRIAQL
[9]; source organism: Salmonella enterica subsp. enterica serovar Typhimurium str. LT2
  Kd: ≤ 1 nM
[40]
  Kd: ≥ 20000 nM
[10]; [52]
  Kd: 26.2 nM
[41]
  Kd: ≥ 20000 nM
[42]
  Kd: ≥ 20000 nM
[43]
  Kd: 2280 nM
[44]
  Kd: 612 nM
[22]; [52]
  Kd: ≥ 20000 nM
[45]
  Kd: ≥ 20000 nM
[46]
  Kd: 348 nM
[12]; [52]
  Kd: 2000 nM
[47]
  Kd: 171 nM
[48]
  Kd: ≥ 20000 nM
[49]
  Kd: 118 nM
[13]; source organism: Salmonella enterica subsp. enterica serovar Typhi
  Kd: ≤ 0.1 nM
